Here are results for two molecules from article PMC6319916 (Biochemistry, 2018).

Data set [1] deals with T1, 3-hydroxy-3-methylglutaryl coenzyme A reductase (DaHMGR) (Delftia acidovorans, UniProt A9BQX8).
T1 sequence (A9BQX8 1-429): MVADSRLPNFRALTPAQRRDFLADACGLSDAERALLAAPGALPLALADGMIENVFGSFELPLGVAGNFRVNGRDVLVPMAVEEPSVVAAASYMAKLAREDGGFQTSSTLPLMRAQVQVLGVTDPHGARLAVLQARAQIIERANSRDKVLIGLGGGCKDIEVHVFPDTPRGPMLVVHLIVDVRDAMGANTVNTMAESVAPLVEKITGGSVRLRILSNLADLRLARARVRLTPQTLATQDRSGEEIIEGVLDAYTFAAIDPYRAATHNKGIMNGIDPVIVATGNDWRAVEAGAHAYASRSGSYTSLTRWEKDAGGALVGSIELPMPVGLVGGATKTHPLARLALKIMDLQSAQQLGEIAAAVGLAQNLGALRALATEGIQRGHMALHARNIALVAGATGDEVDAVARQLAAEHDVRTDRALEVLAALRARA
Nature of the data set: X-ray crystal structure. It is filed as binding.

Substrate in data set [2]: CC(C)(COP(=O)(O)OP(=O)(O)OC[C@H]1O[C@@H](n2cnc3c(N)ncnc32)[C@H](O)[C@@H]1OP(=O)(O)O)[C@@H](O)C(=O)NCCC(=O)NCCSC(=O)C[C@@](C)(O)CC(=O)O
The data set is described as follows: purified protein. Conditions: NADH.

Take `C[C@@](O)(CCO)CC(=O)O` [mevalonate]: in data set [1], the “X-ray crystal structure (1.49 Å)” value is given as “in the mevalonate-bound DaHMGR structure, positive difference maps showed density in the active site, representing mevalonate binding”.

B1: 3-hydroxy-3-methylglutaryl coenzyme A reductase (DaHMGR) (Delftia acidovorans SPH-1) (protein)
chain: T1 sequence (A9BQX8 1-429)
Turning to B1, in data set [2], the Km stood at 7.34 ± 0.71 µM, the kcat worked out at 22.3 s⁻¹ and the kcat/Km is 3.04e+06 M⁻¹ s⁻¹.

Usually Km stands for the substrate concentration at which the rate is half of its maximum. One may read the kcat as the maximal rate divided by the concentration of active sites. Usually kcat/Km stands for the turnover number divided by the Michaelis constant.
